# B1: MxiH, wild-type Shigella flexneri T3SS needle subunit (recombinant, His tag cleaved) (natural protein)
# chain: GHMSVTVPDKDWTLSSLSETFDDGTQTLQGQLTSALNALAENPSNPQLLAEYQSKLSEYTLYRNAQSNTVKVIKDVDAAIIQNFR
# modifications: 15N and 13C isotope labelling
# notes: non-native N-terminal residues glycine and histidine left after cleavage by tobacco etch virus protease (told in words); MxiH, T3SS needle subunit, Shigella flexneri serotype 6, residues Met1 to R83; Helical homopolymer (needle); also called WT MxiH; WT Shigella T3SS needles; source: polymerized in vitro; not shown: hepta-Histidine (His) tag, N-terminal, cleaved
# Molecular target: the molecule itself
# Experiment: in vitro polymerisation into needles, seen by transmission electron microscopy and solid-state NMR; purified subunit polymerised at 0.2 mM, 37°C, sixteen days; needles ultra-centrifuged for magic-angle spinning solid-state NMR at 5.5°C
protein,measurement,value
B1,binding result,binds

# Source: article PMC3605151, “The Common Structural Architecture of Shigella flexneri and Salmonella typhimurium Type Three Secretion Needles” (PLoS Pathogens, 2013)
